# Test results reported in patent US20240270846A1 (published 2024).
# Numbering of substitutions follows the chain as printed. Where no end group is shown, it is not given here.
# T1: biotin-labeled cynomolgus monkey CD137 fused to human IgG1 Fc fragment (cynomolgus monkey, UniProt Q07011 24-186 (human entry), limits assumed, biotin-labeled)
# T1 construct: also called cyno CD137-Fc; not shown: human IgG1 Fc fragment
# T1 chain: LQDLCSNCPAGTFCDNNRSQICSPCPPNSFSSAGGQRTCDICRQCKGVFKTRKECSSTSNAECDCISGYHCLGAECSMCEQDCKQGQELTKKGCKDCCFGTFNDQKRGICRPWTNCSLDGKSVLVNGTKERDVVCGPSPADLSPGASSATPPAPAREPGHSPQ
# T2: biotinylated CD3 epsilon epitope peptide (UniProt P07766 22-48, biotinylated)
# T2 chain: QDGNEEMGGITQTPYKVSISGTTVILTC
# T3: biotin-labeled CD3 epsilon peptide antigen (human, also: biotin-labeled, position not given here)
# T3 construct: Peptide of CD3 epsilon; also called CD3 peptide
# T3 peptide: QDGNEEMGGITQTPY
# B1: DADU01_3#002 (antibody, human IgG1, V domains shown)
# VH: QVQLVESGGGLVQPGRSLRLSCAASGFTFSNAWMHWVRQAPGKGLEWVAQIKDKQNLYNAYYAESVKGRFTISRDDSKNSIYLQMNSLKTEDTAVYYCHYVHYASASTVLPAFGVDAWGQGTTVTVSS
# VL: DIVMTQSPLSLPVTPGEPASISCRSSQSLVHSNRNTYLHWYQQKPGQAPRLLIYKVSNRFSGVPDRFSGSGSGTDFTLKISRVEAEDVGVYYCGQGTQVPYTFGQGTKLEIK
# notes: IgG: VH joined to human IgG1 CH1-Fc; also called dBBDu124
# B2: DADU01_3#018 (antibody, human IgG1, V domains shown)
# VH: B1 VH with K54R, Q55A, L57S, E64P, A104S, S105A, V109L, A112S
# VL: B1 VL
# notes: IgG: VH joined to human IgG1 CH1-Fc; also called dBBDu123
# B3: NNS6f56 (CE115HA340 with REATRW inserted between Kabat positions 99 and 100), one-arm antibody (antibody, V domains shown)
# VH: QVQLVESGGGLVQPGRSLRLSCAASGFTFSNAWMHWVRQAPGKGLEWVAQIKDKSNNYATYYAESVKGRFTISRDDSKNSIYLQMNSLKTEDTAVYYCRYVHYAAREATRWYYGVDAWGQGTTVTVSS
# VL: DIVMTQSPLSLPVTPGEPASISCRSSQSLVHSNRNTYLHWYQQKPGQAPRLLIYKVSNRFSGVPDRFSGSGSGTDFTLKISRVEAEDVGVYYCGQGTQVPYTFGQGTKLEIKR
# B4: NNS6f72 (CE115HA340 with EGIWWG inserted between Kabat positions 99 and 100), one-arm antibody (antibody, V domains shown)
# VH: B3 VH with R106E, E107G, A108I, T109W, R110W, W111G
# VL: B3 VL
# B5: NNS6f71 (CE115HA340 with GWVLGS inserted between Kabat positions 99 and 100), one-arm antibody (antibody, V domains shown)
# VH: B3 VH with R106G, E107W, A108V, T109L, R110G, W111S
# VL: B3 VL
# B6: NNS6f58 (CE115HA340 with SWQVSR inserted between Kabat positions 99 and 100), one-arm antibody (antibody, V domains shown)
# VH: B3 VH with R106S, E107W, A108Q, T109V, R110S, W111R
# VL: B3 VL
# B7: NNS6f67 (CE115HA340 with GLLRAA inserted between Kabat positions 99 and 100), one-arm antibody (antibody, V domains shown)
# VH: B3 VH with R106G, E107L, A108L, T109R, R110A, W111A
# VL: B3 VL
# B8: NNS6f73 (CE115HA340 with WVVGVR inserted between Kabat positions 99 and 100), one-arm antibody (antibody, V domains shown)
# VH: B3 VH with R106W, E107V, A108V, T109G, R110V, W111R
# VL: B3 VL
# B9: NNS6f64 (CE115HA340 with LVSLTV inserted between Kabat positions 99 and 100), one-arm antibody (antibody, V domains shown)
# VH: B3 VH with R106L, E107V, A108S, T109L, R110T, W111V
# VL: B3 VL
# B10: NNS6f68 (CE115HA340 with VEWGRW inserted between Kabat positions 99 and 100), one-arm antibody (antibody, V domains shown)
# VH: B3 VH with R106V, A108W, T109G
# VL: B3 VL
# B11: NNS6f17 (CE115HA340 with WGEGVV inserted between Kabat positions 99 and 100), one-arm antibody (antibody)
# chain 1: QVQLVESGGGLVQPGRSLRLSCAASGFTFSNAWMHWVRQAPGKGLEWVAQIKDKSNNYATYYAESVKGRFTISRDDSKNSIYLQMNSLKTEDTAVYYCRYVHYAAWGEGVVYYGVDAWGQGTTVTVSSASTKGPSVFPLAPSSKSTSGGTAALGCLVKDYFPEPVTVSWNSGALTSGVHTFPAVLQSSGLYSLSSVVTVPSSSLGTQTYICNVNHKPSNTKVDKKVEPKSCDKTHTCPPCPAPEAAGGPSVFLFPPKPKDTLMISRTPEVTCVVVDVSHEDPEVKFNWYVDGVEVHNAKTKPREEQYASTYRVVSVLTVLHQDWLNGKEYKCKVSNKALPAPIEKTISKAKGQPREPQVYTLPPSRCELTKNQVSLSCAVKGFYPSDIAVEWESNGQPENNYKTTPPVLDSDGSFFLVSKLTVDKSRWQQGNVFSCSVMHEALHNHYTQKSLSLSPDYKDDDDK
# chain 2: EPKSSDKTHTCPPCPAPELLGGPSVFLFPPKPKDTLMISRTPEVTCVVVDVSHEDPEVKFNWYVDGVEVHNAKTKPREEQYNSTYRVVSVLTVLHQDWLNGKEYKCKVSNKALPAPIEKTISKAKGQPREPQVCTLPPSRDELTKNQVSLWCLVKGFYPSDIAVEWESNGQPENNYKTTPPVLDSDGSFFLYSKLTVDKSRWQQGNVFSCSVMHEALHNRYTQKSLSLSP
# chain 3: DIVMTQSPLSLPVTPGEPASISCRSSQSLVHSNRNTYLHWYQQKPGQAPRLLIYKVSNRFSGVPDRFSGSGSGTDFTLKISRVEAEDVGVYYCGQGTQVPYTFGQGTKLEIKRTVAAPSVFIFPPSDEQLKSGTASVVCLLNNFYPREAKVQWKVDNALQSGNSQESVTEQDSKDSTYSLSSTLTLSKADYEKHKVYACEVTHQGLSSPVTKSFNRGEC
# B12: NNS6f62 (CE115HA340 with NGGTRH inserted between Kabat positions 99 and 100), one-arm antibody (antibody)
# chain 1: B11 chain 1 with W106N, E108G, G109T, V110R, V111H
# chain 2: B11 chain 2
# chain 3: B11 chain 3
# B13: NNS6f52 (CE115HA340 with YMLGLG inserted between Kabat positions 99 and 100), one-arm antibody (antibody)
# chain 1: B11 chain 1 with W106Y, G107M, E108L, V110L, V111G
# chain 2: B11 chain 2
# chain 3: B11 chain 3
# B14: NNS6f63 (CE115HA340 with GGGGWV inserted between Kabat positions 99 and 100), one-arm antibody (antibody)
# chain 1: B11 chain 1 with W106G, E108G, V110W
# chain 2: B11 chain 2
# chain 3: B11 chain 3
# B15: NNS6f27 (CE115HA340 with VWGSVW inserted between Kabat positions 99 and 100), one-arm antibody (antibody)
# chain 1: B11 chain 1 with W106V, G107W, E108G, G109S, V111W
# chain 2: B11 chain 2
# chain 3: B11 chain 3
# B16: NNS6f54 (CE115HA340 with FEWVGW inserted between Kabat positions 99 and 100), one-arm antibody (antibody)
# chain 1: B11 chain 1 with W106F, G107E, E108W, G109V, V110G, V111W
# chain 2: B11 chain 2
# chain 3: B11 chain 3
# B17: NNS6f59 (CE115HA340 with LLVQEG inserted between Kabat positions 99 and 100), one-arm antibody (antibody)
# chain 1: B11 chain 1 with W106L, G107L, E108V, G109Q, V110E, V111G
# chain 2: B11 chain 2
# chain 3: B11 chain 3
# B18: NNS6f50 (CE115HA340 with LTGGLG inserted between Kabat positions 99 and 100), one-arm antibody (antibody)
# chain 1: B11 chain 1 with W106L, G107T, E108G, V110L, V111G
# chain 2: B11 chain 2
# chain 3: B11 chain 3
# B19: NNS6f29 (CE115HA340 with IYYPTN inserted between Kabat positions 99 and 100), one-arm antibody (antibody)
# chain 1: B11 chain 1 with W106I, G107Y, E108Y, G109P, V110T, V111N
# chain 2: B11 chain 2
# chain 3: B11 chain 3
# B20: NNS6f55 (CE115HA340 with AGRWLA inserted between Kabat positions 99 and 100), one-arm antibody (antibody)
# chain 1: B11 chain 1 with W106A, E108R, G109W, V110L, V111A
# chain 2: B11 chain 2
# chain 3: B11 chain 3
# B21: NNS6f47 (CE115HA340 with HFMWWG inserted between Kabat positions 99 and 100), one-arm antibody (antibody)
# chain 1: B11 chain 1 with W106H, G107F, E108M, G109W, V110W, V111G
# chain 2: B11 chain 2
# chain 3: B11 chain 3
# B22: NNS6f51 (CE115HA340 with GFLVLW inserted between Kabat positions 99 and 100), one-arm antibody (antibody)
# chain 1: B11 chain 1 with W106G, G107F, E108L, G109V, V110L, V111W
# chain 2: B11 chain 2
# chain 3: B11 chain 3
# B23: DXDU01_3#072 (antibody, human IgG1, V domains shown)
# VH: B1 VH with K54R, Q55S, N56Q, N59A, E64P, P111G, F113Y
# VL: B3 VL
# notes: also called dBBDu122
# Target: T4, biotin-labeled human CD137 fused to human IgG1 Fc fragment (human, biotin-labeled)
# T4 construct: also called human CD137-Fc; biotin-human CD137-Fc
# Test: bead ELISA (chemiluminescence), purified IgG on biotin labeled human CD137-Fc on streptavidin beads
# Method: (§1) First, 20 micro g of Streptavidin-coated magnetic beads MyOne-T1 beads was washed three-times with blocking buffer including 0.5× block Ace, 0.02% Tween and 0.05% ProClin 300 and then blocked with this blocking buffer at room temperature for 60 minutes or more. […] After that each well was washed with TBST. […] The plate was incubated for one hour. […] 2 minutes later the fluorescence of each well was detected.
# T4 sequence (chain, as listed by the source limits assumed): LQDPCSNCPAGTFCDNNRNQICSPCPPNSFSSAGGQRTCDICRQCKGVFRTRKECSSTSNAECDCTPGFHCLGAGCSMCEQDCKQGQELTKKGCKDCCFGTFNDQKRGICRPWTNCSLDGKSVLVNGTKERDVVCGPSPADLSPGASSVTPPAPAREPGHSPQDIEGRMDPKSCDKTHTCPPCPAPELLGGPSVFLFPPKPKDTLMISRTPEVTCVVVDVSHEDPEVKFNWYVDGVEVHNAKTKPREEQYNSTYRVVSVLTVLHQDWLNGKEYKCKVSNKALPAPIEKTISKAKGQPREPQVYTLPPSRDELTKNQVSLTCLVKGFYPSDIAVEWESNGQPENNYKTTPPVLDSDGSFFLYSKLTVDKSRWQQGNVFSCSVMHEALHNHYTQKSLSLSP
row,RLU [RLU],Binder
1,39100,B1
2,32800,B2

# Target: T1, biotin-labeled cynomolgus monkey CD137 …
# Test: bead ELISA; RLU on cyno CD137-Fc divided by RLU on human Fc
# Method: as §1
row,S/N ratio cyno CD137-Fc/Fc,Binder
1,5.6,B1
2,3.27,B2

# Target: T4, biotin-labeled human CD137 fused to …
# Test: bead ELISA; RLU on human CD137-Fc divided by RLU on human Fc
# Method: as §1
row,S/N ratio human CD137-Fc/Fc,Binder
1,20.3,B1
2,17.3,B2

# Target: T1, biotin-labeled cynomolgus monkey CD137 …
# Test: bead ELISA (chemiluminescence), purified IgG on biotin labeled cyno CD137-Fc on streptavidin beads
# Method: as §1
row,RLU [RLU],Binder
1,10800,B1
2,6200,B2

# Target: T2, biotinylated CD3 epsilon epitope peptide
# Test: SPR (Biacore); biotinylated CD3 epsilon epitope peptide on chip via streptavidin, antibody as analyte
row,Kd [nM],Binder
1,21,B3
2,150,B4
3,51,B5
4,44,B6
5,36,B7
6,26,B8
7,78,B9
8,45,B10
9,74,B11
10,61,B12
11,52,B13
12,69,B14
13,38,B15
14,29,B16
15,200,B17
16,71,B18
17,90,B19
18,31,B20
19,31,B21
20,31,B22

# Target: T3, biotin-labeled CD3 epsilon peptide …
# Test: bead ELISA, biotin-CD3 epsilon peptide on streptavidin beads, 100 ng IgG
"RLU, CD3 peptide [RLU]",S/N ratio CD3 peptide/non coating,Binder
177000,148,B23
